From patent US20100216715A1 (Novo Nordisk, published 2010)

T1: human beta-Klotho (human, UniProt Q86Z14 1-1044)
T1 sequence (looked up): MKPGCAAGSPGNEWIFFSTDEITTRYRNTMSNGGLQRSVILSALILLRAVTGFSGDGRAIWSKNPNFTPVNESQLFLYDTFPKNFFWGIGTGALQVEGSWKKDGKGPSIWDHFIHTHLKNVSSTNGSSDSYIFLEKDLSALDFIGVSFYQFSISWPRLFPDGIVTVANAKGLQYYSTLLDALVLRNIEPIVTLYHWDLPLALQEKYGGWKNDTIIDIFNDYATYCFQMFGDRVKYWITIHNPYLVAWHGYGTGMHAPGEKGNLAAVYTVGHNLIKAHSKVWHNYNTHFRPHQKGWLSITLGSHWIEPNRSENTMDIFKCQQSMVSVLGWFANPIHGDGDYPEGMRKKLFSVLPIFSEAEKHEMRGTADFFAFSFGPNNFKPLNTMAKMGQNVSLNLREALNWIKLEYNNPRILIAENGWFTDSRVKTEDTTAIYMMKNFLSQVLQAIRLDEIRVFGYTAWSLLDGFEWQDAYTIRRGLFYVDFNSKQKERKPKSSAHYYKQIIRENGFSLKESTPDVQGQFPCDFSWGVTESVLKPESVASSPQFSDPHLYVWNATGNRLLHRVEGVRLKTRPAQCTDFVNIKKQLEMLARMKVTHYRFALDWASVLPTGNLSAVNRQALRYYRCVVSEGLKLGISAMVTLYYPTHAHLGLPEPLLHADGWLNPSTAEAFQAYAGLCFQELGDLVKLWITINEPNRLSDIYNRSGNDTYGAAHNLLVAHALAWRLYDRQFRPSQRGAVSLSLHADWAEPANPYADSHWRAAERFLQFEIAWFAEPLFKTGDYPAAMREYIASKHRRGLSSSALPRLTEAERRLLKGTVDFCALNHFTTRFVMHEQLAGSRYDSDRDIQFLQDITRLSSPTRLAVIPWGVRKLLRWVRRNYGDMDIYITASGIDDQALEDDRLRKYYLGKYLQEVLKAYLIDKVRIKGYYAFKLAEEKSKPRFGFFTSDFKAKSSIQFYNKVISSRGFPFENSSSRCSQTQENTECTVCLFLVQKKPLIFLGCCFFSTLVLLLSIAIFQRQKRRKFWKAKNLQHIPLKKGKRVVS


Biological target: T1, human beta-Klotho
Assay: cell-based or functional assay

| pERK-HEK293-Beta-klotho without HSA [EC50 (nM)] Median Value [nM] | Molecule |
| --- | --- |
| 1.6 | Met-FGF21 (ligand) MHPIPDSSPLLQFGGQVRQRYLYTDDAQQTEAHLEIREDGTVGGAADQSPESLLQLKALKPGVIQILGVKTSRFLCQRPDGALYGSLHFDPEACSFRELLLEDGYNVYQSEAHGLPLHLPGNKSPHRDPAPRGPARFLPLPGLPPALPEPPGILAPQPPDVGSSDPLSMVGPSQGRSPSYAS |
| 2.5 | (S71C) Gly-FGF21 (ligand) GHPIPDSSPLLQFGGQVRQRYLYTDDAQQTEAHLEIREDGTVGGAADQSPESLLQLKALKPGVIQILGVKTCRFLCQRPDGALYGSLHFDPEACSFRELLLEDGYNVYQSEAHGLPLHLPGNKSPHRDPAPRGPARFLPLPGLPPALPEPPGILAPQPPDVGSSDPLSMVGPSQGRSPSYAS |
| 1.8 | (S71C, D102E, N121Q, L166F, S167G, M168L, 169aT, P171L, S172E, Q173A, G174V, Y179F, A180E, S181K) Gly-FGF21 (ligand) GHPIPDSSPLLQFGGQVRQRYLYTDDAQQTEAHLEIREDGTVGGAADQSPESLLQLKALKPGVIQILGVKTCRFLCQRPDGALYGSLHFDPEACSFRELLLEEGYNVYQSEAHGLPLHLPGQKSPHRDPAPRGPARFLPLPGLPPALPEPPGILAPQPPDVGSSDPFGLVTGLEAVRSPSFEK |
| 1 | (Q28R, K56R, K59R, K69R, D102T, N121Q, K122R, L166F, S167G, M168L, G170T) Gly-FGF21 (ligand) GHPIPDSSPLLQFGGQVRQRYLYTDDAQRTEAHLEIREDGTVGGAADQSPESLLQLRALRPGVIQILGVRTSRFLCQRPDGALYGSLHFDPEACSFRELLLETGYNVYQSEAHGLPLHLPGQRSPHRDPAPRGPARFLPLPGLPPALPEPPGILAPQPPDVGSSDPFGLVTPSQGRSPSYAS |
| 29 | (Q28R, K56R, K59R, K69R, D102T, N121Q, K122R, M168L, Y179F, A180E, S181R) Gly-FGF21 (ligand) GHPIPDSSPLLQFGGQVRQRYLYTDDAQRTEAHLEIREDGTVGGAADQSPESLLQLRALRPGVIQILGVRTSRFLCQRPDGALYGSLHFDPEACSFRELLLETGYNVYQSEAHGLPLHLPGQRSPHRDPAPRGPARFLPLPGLPPALPEPPGILAPQPPDVGSSDPLSLVGPSQGRSPSFER |
| 15 | (Q28R, K56R, K59R, K69R, D102T, N121Q, K122R, D159E, M168L, G174A, Y179F) Gly-FGF21 (ligand) GHPIPDSSPLLQFGGQVRQRYLYTDDAQRTEAHLEIREDGTVGGAADQSPESLLQLRALRPGVIQILGVRTSRFLCQRPDGALYGSLHFDPEACSFRELLLETGYNVYQSEAHGLPLHLPGQRSPHRDPAPRGPARFLPLPGLPPALPEPPGILAPQPPEVGSSDPLSLVGPSQARSPSFAS |

Second part, the molecule before the results:

| Molecule | pERK-HEK293-Beta-klotho without HSA [EC50 (nM)] Median Value [nM] |
| --- | --- |
| (P143V, A145E, L146E, 148aD, P149L, P150R, I152H, 153aE, 153bS, 153cD, 153dM, A154F, P155S, Q156S, P158L, D159E, V160T, G161D, S163M, L166F, S167G, M168L, 169aT, P171L, S172E, Q173A, G174V, Y179F, A180E, S181K) Met-FGF21 (ligand) | 9.5 |
| (K56R, 59R, 69R, 122R, 168L) Gly-FGF21 derivative of Example 48 (ligand, N-alpha-1-[2-(2-{2-[2-(2-{2-[(S)-4-carboxy-4-(17-carboxy-heptadecanoylamino)-butyrylamino]-ethoxy}-ethoxy)-acetylamino]-ethoxy}-ethoxy)-acetyl] on the N-terminal alpha amino group) GHPIPDSSPLLQFGGQVRQRYLYTDDAQQTEAHLEIREDGTVGGAADQSPESLLQLRALRPGVIQILGVRTSRFLCQRPDGALYGSLHFDPEACSFRELLLEDGYNVYQSEAHGLPLHLPGNRSPHRDPAPRGPARFLPLPGLPPALPEPPGILAPQPPDVGSSDPLSLVGPSQGRSPSYAS | 4.6 |
| (K56R, K59R, K69R, K122R) Gly-FGF21 derivative of Example 53 (ligand, N-alpha-1-(2-{2-[2-(16-1H-tetrazol-5-yl-hexadecanoylamino)-ethoxy]-ethoxy}-acetyl) on the N-terminal alpha amino group) GHPIPDSSPLLQFGGQVRQRYLYTDDAQQTEAHLEIREDGTVGGAADQSPESLLQLRALRPGVIQILGVRTSRFLCQRPDGALYGSLHFDPEACSFRELLLEDGYNVYQSEAHGLPLHLPGNRSPHRDPAPRGPARFLPLPGLPPALPEPPGILAPQPPDVGSSDPLSMVGPSQGRSPSYAS | 6.4 |
| (K56R, K59R, K69R, K122R) Gly-FGF21 derivative of Example 46 (ligand, N-alpha-1-[2-(2-{2-[2-(2-{2-[(S)-4-carboxy-4-(17-carboxy-heptadecanoylamino)-butyrylamino]-ethoxy}-ethoxy)-acetylamino]-ethoxy}-ethoxy)-acetyl] on the N-terminal alpha amino group) GHPIPDSSPLLQFGGQVRQRYLYTDDAQQTEAHLEIREDGTVGGAADQSPESLLQLRALRPGVIQILGVRTSRFLCQRPDGALYGSLHFDPEACSFRELLLEDGYNVYQSEAHGLPLHLPGNRSPHRDPAPRGPARFLPLPGLPPALPEPPGILAPQPPDVGSSDPLSMVGPSQGRSPSYAS | 3.9 |
| (K56R, K59R, K69R, K122R) Gly-FGF21 (ligand) GHPIPDSSPLLQFGGQVRQRYLYTDDAQQTEAHLEIREDGTVGGAADQSPESLLQLRALRPGVIQILGVRTSRFLCQRPDGALYGSLHFDPEACSFRELLLEDGYNVYQSEAHGLPLHLPGNRSPHRDPAPRGPARFLPLPGLPPALPEPPGILAPQPPDVGSSDPLSMVGPSQGRSPSYAS | 7.4 |
| (K56R, K59R, K69R, K122R) Gly-FGF21 derivative of Example 54 (ligand, N-alpha1-[4-(16-1H-tetrazol-5-yl-hexadecanoylsulfamoyl)-butyryl] on the N-terminal alpha amino group) GHPIPDSSPLLQFGGQVRQRYLYTDDAQQTEAHLEIREDGTVGGAADQSPESLLQLRALRPGVIQILGVRTSRFLCQRPDGALYGSLHFDPEACSFRELLLEDGYNVYQSEAHGLPLHLPGNRSPHRDPAPRGPARFLPLPGLPPALPEPPGILAPQPPDVGSSDPLSMVGPSQGRSPSYAS | 4.2 |
| (K56R, K59R, K69R, K122R, L166F, S167G, M168L, 169aT, P171L, S172E, Q173A, G174V, Y179F, A180E, S181R) Gly-FGF21 (ligand) GHPIPDSSPLLQFGGQVRQRYLYTDDAQQTEAHLEIREDGTVGGAADQSPESLLQLRALRPGVIQILGVRTSRFLCQRPDGALYGSLHFDPEACSFRELLLEDGYNVYQSEAHGLPLHLPGNRSPHRDPAPRGPARFLPLPGLPPALPEPPGILAPQPPDVGSSDPFGLVTGLEAVRSPSFER | 3.3 |
| (K56R, 59R, 69R, 122R, 166F, 167G, 168L, 169aT, 171L, 172E, 173A, 174V, 179F, 180E, 181R) Gly-FGF21 derivative of Example 49 (ligand, N-alpha-1-[2-(2-{2-[2-(2-{2-[(S)-4-carboxy-4-(17-carboxy-heptadecanoylamino)-butyrylamino]-ethoxy}-ethoxy)-acetylamino]-ethoxy}-ethoxy)-acetyl] on the N-terminal alpha amino group) GHPIPDSSPLLQFGGQVRQRYLYTDDAQQTEAHLEIREDGTVGGAADQSPESLLQLRALRPGVIQILGVRTSRFLCQRPDGALYGSLHFDPEACSFRELLLEDGYNVYQSEAHGLPLHLPGNRSPHRDPAPRGPARFLPLPGLPPALPEPPGILAPQPPDVGSSDPFGLVTGLEAVRSPSFER | 1.2 |
| (K56R, K59R, K69R, K122R) EEAEAGGAGGSGGS-FGF21 (ligand) EEAEAGGAGGSGGSHPIPDSSPLLQFGGQVRQRYLYTDDAQQTEAHLEIREDGTVGGAADQSPESLLQLRALRPGVIQILGVRTSRFLCQRPDGALYGSLHFDPEACSFRELLLEDGYNVYQSEAHGLPLHLPGNRSPHRDPAPRGPARFLPLPGLPPALPEPPGILAPQPPDVGSSDPLSMVGPSQGRSPSYAS | 2 |
| (A26E, K56R, K59R, K69R, D102T, N121Q, K122R, Y179F, A180E, S181R) Gly-FGF21 (ligand) GHPIPDSSPLLQFGGQVRQRYLYTDDEQQTEAHLEIREDGTVGGAADQSPESLLQLRALRPGVIQILGVRTSRFLCQRPDGALYGSLHFDPEACSFRELLLETGYNVYQSEAHGLPLHLPGQRSPHRDPAPRGPARFLPLPGLPPALPEPPGILAPQPPDVGSSDPLSMVGPSQGRSPSFER | 44 |
| [28R, K56R, 59R, 69R, 102T, 121Q, 122R, 168L, 179F, 180E, 181R] Gly-FGF21 derivative of Example 47 (ligand, N-alpha-1-[2-(2-{2-[2-(2-{2-[(S)-4-carboxy-4-(17-carboxy-heptadecanoylamino)-butyrylamino]-ethoxy}-ethoxy)-acetylamino]-ethoxy}-ethoxy)-acetyl] on the N-terminal alpha amino group) GHPIPDSSPLLQFGGQVRQRYLYTDDAQRTEAHLEIREDGTVGGAADQSPESLLQLRALRPGVIQILGVRTSRFLCQRPDGALYGSLHFDPEACSFRELLLETGYNVYQSEAHGLPLHLPGQRSPHRDPAPRGPARFLPLPGLPPALPEPPGILAPQPPDVGSSDPLSLVGPSQGRSPSFER | 10 |
| (Q27E, K56R, K59R, K69R, D102T, N121Q, K122R, Y179F, A180E, S181R) Gly-FGF21 (ligand) GHPIPDSSPLLQFGGQVRQRYLYTDDAEQTEAHLEIREDGTVGGAADQSPESLLQLRALRPGVIQILGVRTSRFLCQRPDGALYGSLHFDPEACSFRELLLETGYNVYQSEAHGLPLHLPGQRSPHRDPAPRGPARFLPLPGLPPALPEPPGILAPQPPDVGSSDPLSMVGPSQGRSPSFER | 36 |
